In experiment [1] the target is full length human CD16b stably expressed on transduced WT Jurkat cells (human) (UniProt O75015). Nature of the experiment: flow cytometry on CD16b-transduced WT Jurkat cells stained with anti-CD16 (axis printed VL1-A :: CD16-eFluor 450-A). In general terms: A flow cytometer gives signals particle by particle.
The target in experiment [2] is HER2 on SKOV3 cells (human) (UniProt P04626). Nature of the experiment: flow cytometry on SKOV3 cells, anti-HER2 PerCP/Cy5.5 at 1:20.
Experiment [3] addresses HER2 on JIMT-1 cells (human) (UniProt P04626). Kind of experiment: flow cytometry on JIMT-1 cells, anti-HER2 PerCP/Cy5.5 at 1:20.
Experiment [4] concerns the target HER2 on MDA-MB-231 cells (human) (UniProt P04626). Kind of experiment: flow cytometry on MDA-MB-231 cells, anti-HER2 PerCP/Cy5.5 at 1:20.
For experiment [5], the target named is HER2 on HT29 cells (human) (UniProt P04626). Kind of experiment: flow cytometry on HT29 cells, anti-HER2 PerCP/Cy5.5 at 1:20.
For experiment [6], the target named is HER2 on MDA-MB-175 cells (human) (UniProt P04626). Nature of the experiment: flow cytometry on MDA-MB-175 cells, anti-HER2 PerCP/Cy5.5 at 1:20.
The target is the same in experiment [7]. Kind of experiment: flow cytometry on MDA-MB-175 cells, isotype ctrl PerCP/Cy5.5.
For experiment [8], the target named is HER2 on HT29 cells (human) (UniProt P04626). Kind of experiment: flow cytometry on HT29 cells, isotype ctrl PerCP/Cy5.5.
The target in experiment [9] is HER2 on MDA-MB-231 cells (human) (UniProt P04626). Kind of experiment: flow cytometry on MDA-MB-231 cells, isotype ctrl PerCP/Cy5.5.
Experiment [10] addresses HER2 on SKOV3 cells (human) (UniProt P04626). Nature of the experiment: flow cytometry on SKOV3 cells, isotype ctrl PerCP/Cy5.5.
The target in experiment [11] is HER2 on JIMT-1 cells (human) (UniProt P04626). Nature of the experiment: flow cytometry on JIMT-1 cells, isotype ctrl PerCP/Cy5.5.

Sequence of full length human CD16b stably expressed on transduced WT Jurkat cells (human) (O75015 17-200): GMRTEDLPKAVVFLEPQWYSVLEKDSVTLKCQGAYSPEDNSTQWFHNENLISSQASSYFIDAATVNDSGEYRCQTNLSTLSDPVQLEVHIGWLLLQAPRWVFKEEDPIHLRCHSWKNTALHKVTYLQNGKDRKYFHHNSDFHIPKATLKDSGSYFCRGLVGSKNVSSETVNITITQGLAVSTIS

“CD16-BV421 (BV421 mouse anti-human CD16 clone 3G8, BD Biosciences) (antibody)”: the CD16 gate (percent of cells) in [1] came to 100.
Consider “HER2 (Anti-Her2 PerCP/Cy5.5, BioLegend #324416) (antibody)”, for which the Median : BL3-A is 25400 in experiment [2]; 10300 in [3]; 1240 in experiment [4]; 2230 in experiment [5]; 6860 in [6].
As for “iso ctrl (Isotype ctrl PerCP/Cy5.5 antibody)”, the Median : BL3-A amounted to 331 in [7]; 361 in experiment [8]; 520 in [9]; 491 in experiment [10]; 306 in [11].

Values taken from patent US20260250338A1.
